# Laboratory results taken from publication PMC12724329.
# Molecular target: gcKPNB3-FLAG (grass carp importin beta 3, FLAG-tagged) (grass carp)
# Test: co-IP; co-IP of IRF3 with gcKPNB3 from GCRV-infected CIK cells with gcDDX56 overexpressed (+, 4 µg; ++, 8 µg plasmid) or knocked down by siRNA; bands quantified with ImageJ
substance,measurement,value
"gcIRF3-HA (grass carp IRF3, HA-tagged) (natural protein)",fold change of the interaction on gcDDX56 knockdown against the siRNA control,3.23 fold
